Earlier results as cited in paper PMC12114883.

Target: CLV1 (Arabidopsis thaliana) (UniProt Q9SYQ8)
Chain of UniProt Q9SYQ8 (Q9SYQ8 25-638): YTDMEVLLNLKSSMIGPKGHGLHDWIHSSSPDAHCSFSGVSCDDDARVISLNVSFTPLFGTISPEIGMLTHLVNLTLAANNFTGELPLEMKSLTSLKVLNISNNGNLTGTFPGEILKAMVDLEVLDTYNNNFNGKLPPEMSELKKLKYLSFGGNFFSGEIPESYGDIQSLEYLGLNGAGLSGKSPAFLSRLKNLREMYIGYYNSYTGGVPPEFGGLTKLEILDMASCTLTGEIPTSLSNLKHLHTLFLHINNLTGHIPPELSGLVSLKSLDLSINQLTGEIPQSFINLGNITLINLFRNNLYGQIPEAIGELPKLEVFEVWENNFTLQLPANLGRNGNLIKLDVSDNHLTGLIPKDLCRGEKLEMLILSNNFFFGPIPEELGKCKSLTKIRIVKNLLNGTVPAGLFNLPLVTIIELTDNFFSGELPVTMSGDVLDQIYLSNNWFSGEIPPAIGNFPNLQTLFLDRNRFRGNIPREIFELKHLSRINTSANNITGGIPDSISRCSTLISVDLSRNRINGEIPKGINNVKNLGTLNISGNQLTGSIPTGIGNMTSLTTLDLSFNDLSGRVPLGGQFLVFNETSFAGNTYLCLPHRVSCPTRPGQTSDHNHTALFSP

Kd: 17.5 nM
Substance: CLV3 (from UniProt Q9XF04)
